# Reference: PMC11585080 (ACS nano, 2019)
# Tests used:
# Assay type in all cases: physicochemical
# [1] = Analytical ultracentrifugation
# [2] = ThT fluorescence assay of Aβ1–40 aggregation
# [3] = Phase diagram of Aβ1–40 aggregation in water/alcohol mixtures
# [4] = representatively selected peak, 2% HFIP, 25 °C
# [5] = 6% HFIP, with sonication, 37 °C
# [6] = without TFE, with sonication, 10 μM Aβ1–40, 10 mM sodium phosphate buffer pH 7.5, 100 mM NaCl, 5 μM ThT, 37 °C, three independent measurements
substance,measurement,setting,value
"Aβ1–40 oligomers: Aβ1–40 dissolved in 100% HFIP, diluted 10-fold with water; ThT-negative β-structured spherical oligomers",molecular weight of small oligomers,[1]; calculated from s-value ~5.2 S,~ 70 kDa
same,molecular weight of large oligomers,[1]; calculated from s-value ~24.7 S,~ 740 kDa
same,number of Aβ1–40 peptides forming small oligomers,[1]; from molecular weight ~70 kDa,~ 17
same,number of Aβ1–40 peptides forming large oligomers,[1]; from molecular weight ~740 kDa,~ 170
same,"sedimentation coefficient (s-value), large oligomers",[1]; [4],~ 24.7 S
same,"sedimentation coefficient (s-value), small oligomers",[1]; [4],~ 5.2 S
same,time of saturation of ThT fluorescence increase,"[2]; oligomers + 10 mM sodium phosphate buffer pH 7.5, 100 mM NaCl, quiescent, 37 °C",~ 35 h
same,increase in ThT intensity,"[2]; oligomers + NaCl alone (50–2000 mM), no pH shift, continuous shaking",no increase
same,change in ThT fluorescence intensity of oligomer solution,"[2]; oligomers without buffer (pH ~4), ~2 days without agitation, 37 °C",no changes
amyloid-β (1–40) [Aβ1–40],solubility state at high alcohol concentrations,"[3]; >40% TFE and >30% HFIP, regardless of extensive sonication",remained soluble
same,amyloid-forming region,"[3]; water/TFE mixtures, with sonication, 100 mM NaCl, pH 7.5",0–25 % TFE
same,lag time before sigmoidal increase in ThT fluorescence,"[2]; 2% HFIP, quiescent, 10 μM, pH 7.5, 100 mM NaCl, 37 °C",~ 6 h
same,conversion rate constant (protofibrils to amyloid fibrils),[2]; [5],2.21 ± 0.85 h⁻¹
same,time at which the ThT reaction was completed,[2]; [5],~ 2 h
same,change in intensity of ThT fluorescence,"[2]; 6% HFIP, without sonication, after ~35 h, 37 °C",did not change
same,ThT fluorescence during incubation,"[2]; 50% HFIP, without sonication, test tubes, pH 7.5, 100 mM NaCl, 37 °C",maintained a very low intensity
same,effect of sonication on ThT fluorescence,"[2]; greater than 40% TFE, with sonication, 10 μM, pH 7.5, 100 mM NaCl, 37 °C",did not affect the ThT fluorescence
same,change in ThT-based kinetics and CD spectra,"[2]; more than 25% TFE, quiescent, 10 μM, pH 7.5, 100 mM NaCl, 37 °C",no change
same,change in ThT fluorescence intensity after incubation,"[2]; without TFE, quiescent, incubation ~2 days, 10 μM, pH 7.5, 100 mM NaCl, 37 °C",no change
same,elongation rate constant of amyloid fibrillation (ThT),[2]; [6],~ 10 h^−1
same,lag time of amyloid fibrillation (ThT),[2]; [6],~ 1 h
